Assay results published in a protein production outcome set (Wang et al. 2014).

Assay: label from the status in PepcDB records
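Also: failed if final PepcDB status was selected cloned or expressed and not failed if soluble or beyond.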

**Q.** Which protein production does the source give for “MKSVQEKRNNTRAFKTVAKSWFATKTTWSEDYQRSVWTRLETYLFPDIGNKDIAELDTGDLLVPIKKIEKLGYLEIAMRVKQYATAIMRYAVQQKMIRFNPAYDLEGAVQKLEHHHHHH” here?
**A.** not failed

**Q.** With “MKSWTILLSTLCLFSCNQQENKFEKYVDPLIGTDIRIVQGKDKNSTEERGQIMPAVGVPHGMTNWVAQTQATEQKCHPPYYYFQDAIQGFRASHWMNGSCTQDYGSITIMPLSNKLEIDPVKRASTFDHTQETATPSYYSVDLNDYDIHAELTGLSRAGIMQFSFEQDGDHYIVIEPNSDEGVAFVEIDPEKKEITGYNPVHRIYQGYGKEAGFSGHFVIQLNEEIADYGVWDSTTITPGRKSAKGQKHAVGAWIKLTSDKPGKILVKVATSFTSIDNARKNLAAEIPGWNFNEVRQASSDIWNQALGQIAVKGNNEKEKVKFYSALYNAHFLPRAFSDVDGSYPRFDGDGQIMKMDHGTYYCDFSQWDTYRAVHPLFSILTPSRNGDMAHSLVLKGQQGGWLPIFPSWNSYTAAMIGDHCIAMIGDAIVKDTPGFDYEEAYTLMRKNAFEANPDSGSYRDGKGRRAMESYLKYNYVPLEDQVTEAFHRREQVSRTLEYAYDDFVLAQVAKKLGKTDDYKALIKRAENYRNVIDPETGYARGRHADGTWIEPFDPFASTSFICEGTPYHYTWYAPQDIAGLIRHMGGKERFINRLDNFFEGNYYWHGNEPGHHIAYLFAYAGEPWKTQKWVHDIINREYFTTPDGLSGNDDAGQMSSWLVFSMVGFYPVCPGMPYYVIGSPSFEESVITLENGKKFTIEAKGASEKNIYIQSATLNGQPYNKSYILHKDIMNGGILSFVMGDSPNKEWASSAGSLPPSMGL” as the sequence, how does the protein production read?
**A.** failed

**Q.** With “MKTDTEWLLCDFHVHTNMSDGHLPLGEVVDLFGKHGVDVVSITDHIVDRRTLEQRKRNGEPLGAITEDKFQDYLKRLWREQKRAWEEYGMILIPGVEITNNTDLYHIVAVDVKEYVDPSLPVEEIVEKLKEQNALVIAAHPDRKKQDEEHLSWYLWANMERFKDTFDAWEIANRDDLFNSVGVKKYRYVANSDFHELWHVYSWKTLVKSEKNIEAIKEAIRKNTDVAIYLMRKNRLSSLSDVI” as the sequence, how does the protein production read?
**A.** not failed

**Q.** For “MKTEKFFTHPIGVFIAAIVATFLWGSAFPFIKLSYVELGIQPQEVGEQILFAGYRFFLSGFMLLLFFKVLGKDMSFKKGTGKQLIQIGLFQTFLQYICFYIGMSYSSGIEGAIISGTSSFFQILLAHFLYKDDALNMRKIIGVSIGFCGVVLVNMPSDGSLSFHFGIGSLLLLSAAMLYSYGNILAKEGSKTLDVGYMTAYQMMFGSIGLLCIGALQVGVMPFTFSLHALLMLIYLSFLSAAGFCIWNTIMKYNKVGKVSMYMFFIPVFGVLLSSMILGEAIHSFVLLGLACVAAGIIVVNRTPAKQKIEKEKQVA”, which protein production is on record?
**A.** failed

**Q.** For “MKTESTGKALMVLGCPESPVQIPLAIYTSHKLKKKGFRVTVTANPAALRLVQVADPEGIYTDEMVDLESCINELAEGDYEFLAGFVPNDAAAAYLVTFAGILNTETLAIIFDRDADVLEELVNEIMETLDAEIIAARAHHNPAPLRVRIDRFMEEKP”, which protein production is on record?
**A.** not failed

**Q.** With “MKTFHLTTQSRDEMVDITSQIETWIRETGVTNGVAIVSSLHTTAGITVNENADPDVKRDMIMRLDEVYPWHHENDRHMEGNTAAHLKTSTVGHAQTLIISEGRLVLGTWQGVYFCEFDGPRTNRKFVVKLLTD” as the sequence, how does the protein production read?
**A.** not failed

**Q.** With “MKTFIWNSNYETGVAKVDDQHQCLVEIINEYSHLLANNTTTETDIELTLNKLIDYTKFHFKDEEQLMYSVGLDTRHITHHEKLHRDILDEISTLLSDQVTDKLSIARYILDLIIHWLVYHILGTDMNMAKLEHHHHHH” as the sequence, how does the protein production read?
**A.** failed

**Q.** Which protein production does the source give for “MKTFIWNSNYETGVAKVDDQHQCLVEIINEYSHLLANNTTTETDIELTLNKLIDYTKFHFKDEEQLMYSVGLDTRHITHHEKLHRDILDEISTLLSDQVTDKLSIARYILDLIIHWLVYHILGTDMNMAKQMKAIQGGLSARDAYDFEEKIKDKSTEPLLEALNALFIQISERNKDLMELNKTLEAKVISRTQQLSERNKELAILSLTDPLTNMANRRHAMQQLTLLWEESVNNNLPLSCLMIDVDYFKQINDTHGHDIGDVVLIELARVFQHAIRTDDIACRLGGDEFFIICPATELEGGLLIAELINEQVESLSIDISDSQLSLSTSIGVATKTAQMTSIEDLMKAADDGVYSAKSNGRGCTKSIQ” here?
**A.** failed

**Q.** With “MKTFKGKVTTTLAVLSAMSLFAFSASLLAGSLDLSGRSDDDTQQDTGRKPAQIIDFVGVEKGDKVLDLLAGGGYYSELLSRVVGEKGEVTLQIPKAYLKYAEKSIKVRLANDRLKNVTYLLSEADDLKLSENTYDSAFLVLGFHDMFFKEDSWNFTADEVMPQVLTSLKSGGKLLVIDHDATENSGIRDVKSLHRIDSAFVKADLEKRGFKLVKTSKILENNADDHSKLVFVPELRRKTDRFVMLFEKI” as the sequence, how does the protein production read?
**A.** failed

**Q.** With “MKTHFYRLKFKKSIFFAVFLSFFSLLFAVDYFEEGKKLLYADKPQEAVSALFKASQEAGTPKSVYLYLGVAYFRMGKYSEALTYLSQGKDKDILNGHLYYYNIGNVYFLQNQFEASELAYNEAISSNGLYAPAFLNRANTRIKLEKLEGALQDYKIYLNLNPETLQRSSIEKMISLLEGLAEEAERAKALAEAKKAAEEAERLAAEARYKKLMEDVNANLSSVDNADALSAGADNTIDYSEENELD” as the sequence, how does the protein production read?
**A.** failed

**Q.** With “MKTIDLADIQAFLYRESRLLDDKAWDAWLDCYRADAVFWMPSWDDADALVTDPQREISLIYYPNRQGLEDRVFRIKTERSSATVPDTRTSHNIANVERESADGDVHTVRFNWHTLSYRYKTVSSYFGMSRYAIDFSGDAPKIVSKYVVLKNDYINQLIDIYHI” as the sequence, how does the protein production read?
**A.** not failed

**Q.** For “MKTIGLLGGMSWESTIPYYRLINEGVKARLGGLHSASLVLHSVDFHDIEACQSAGDWDRAGEILAEAAVGLQQAGAEGIVLCTNTMHKVADAIAARCQVPFLHIADATGRAIAAKGQRRVALLGTRYTMEQTFYRGRLQEQFAIETLIPEADDRAQINQIIFDELCLGTFSEASRDYYLQTIAALAEQGAEGVIFGCTEIGLLVPAELSPLPVFDTAAIHAEDAVNFMLSAGPTPAA”, which protein production is on record?
**A.** failed

**Q.** With “MKTINIVAGGPKNLIPDLTGYTDEHTLWIGVDKGTVTLLDAGIIPVEAFGDFDSITEQERRRIEKAAPALHVYQAEKDQTDLDLALDWALEKQPDIIQIFGITGGRADHFLGNIQLLYKGVKTNIKIRLIDKQNHIQMFPPGEYDIEKDENKRYISFIPFSEDIHELTLTGFKYPLNNCHITLGSTLCISNELIHSRGTFSFAKGILIMIRSTDLEHHHHHH” as the sequence, how does the protein production read?
**A.** not failed

**Q.** Which protein production does the source give for “MKTINVITLVLLIVGGLNWGLVGLFQFDLVAALFGGQDALLSRVVYTLVGISALRQLVPLFRNNHDTAEHHTSPHVRNNP” here?
**A.** failed

**Q.** With “MKTITTTKSPTVKDYIDAYLIERKYCAAPSTLASDLSRAKNINEALGEFPINAVSHTQINMLLVSWHERFRNKTINEHLTILRRISLKAVRDGVIARNPMTGVQNFKTVDPEPNPFTKKELARMHECKNVCTQGQNAVMLNLLTGLRISELIALSWQDINWEREVLYVRRACVLNIYKCPKTKGSVREVDLNPLALKLLKEQLKLTGKRRPQTINILECDNKTFTKDSVSFIFLNTKTNQPFTDAKEFTERFFIKFLEQAGVAHRGVGQLRHTFASQCLTTGISKDWLAVQMGHKSTTMIDKHYGRWIREDSPNYAREAAQHLQDIFGLPQIKPTVTLPAVPHSSLVLLKKLQSKPQLIQLLEGMLESDR” as the sequence, how does the protein production read?
**A.** failed

**Q.** With “MKTKIIGVLGLGIFGQTLAQELSNFEQDVIAIDSNPENVQAVAEVVTKAAIGDITDLAFLKHIGISDCDTVIIATGNSLESSVLAVMHCKKLGVPQVIAKARNLVYEEVLYEIGADLVISPERESGQNVAANLMRNKITDVFQIESDISVIEFKIPKSWVGKTVEQLNIRHKFDLNLIGIRKAKNKPVDTEVPINSPLEEGIILVAIANSDAFQRYDYLGYFNLEHHHHHH” as the sequence, how does the protein production read?
**A.** not failed

**Q.** With “MKTKLMTLQDATGFFRDGMTIMVGGFMGIGTPSRLVEALLESGVRDLTLIANDTAFVDTGIGPLIVNGRVRKVIASHIGTNPETGRRMISGEMDVVLVPQGTLIEQIRCGGAGLGGFLTPTGVGTVVEEGKQTLTLDGKTWLLERPLRADLALIRAHRCDTLGNLTYQLSARNFNPLIALAADITLVEPDELVETGELQPDHIVTPGAVIDHIIVSQESK” as the sequence, how does the protein production read?
**A.** not failed

**Q.** With “MKTKYIIASLGLATLLSFGANAAVHQVNAEQAQNLQPMGTISVSQIGSTPMDMRQEIVAKAEKAGANSYRIIELKEGDNWHATAELYKLEHHHHHH” as the sequence, how does the protein production read?
**A.** failed

**Q.** For “MKTLHVQTASSSYPVFIGQGIRKKACELLTSLNRPLTRIMFVTDEEVDRLYGDEMLHLLQEKWPVKKVTVPSGEQAKSMDMYTKLQSEAIRFHMDRSSCIIAFGGGVVGDLAGFVAATFMRGIDFIQMPTTLLAHDSAVGGKVAVNHPLGKNLIGAFYQPKAVLYDTDFLRSLPEKELRSGMAEVIKHAFIYDRAFLEELLNIHSLRDITNDQLNDMIFKGISIKASVVQQDEKEEGIRAYLNFGHTLGHAVEAEYGYGQITHGDAVALGMQFALYISEKTVGCEMDRKRLVSWLKSLGYPSQIRKETETSVLLNRMMNDKKTRGGKIQFIVLNELGKVADHTFSRNELESWLNKWRLEETS”, which protein production is on record?
**A.** failed

**Q.** For “MKTPTSRPVVLCLSGHDPSGGAGLQADIEALLAQGCHAAPAVTALTVQDTVNVSDFRVLDREWVLAQANAVLADLPVAAVKLGMLGSLEMVDTVAEILAAHPHLPVVCDPVLRAGGGGALGKGDVGFAMRERLLPRATIATPNLPEARLLADLPEGSADQCAERLLEHCEHLLITGGHGDESEVHNRLYSRDGSRRTFTCQRLPGSYHGSGCTLASALAGRIALGEALHGAVQSALDYTWRTLRDAESPGHGQYVPRRLPTDFCH”, which protein production is on record?
**A.** failed

**Q.** For “MKTRLLPVAPSAGTLPGLPDAAELAVLRAWHAGLSAREAVERYLGERRAPGQSSRGILGRIRRQLAAFARRRQREDLALLFEIAATERARQGRVADQAVELLRTLPLPEPAISDDVALWLDARAVTVLRAAGIDTLADLTVRVPRRRRWWAAIPGLGQAGARRIEAFFAEHPRLTERAKALIAEQPRGVVVPWEQLRLPHEVDGSEGQFRAPRETSVLTADNDYEAVQAWLSLHESPATQRAYRKEAERLILWAIIERGRPLSSLTTEDAIAYRGFLRRPSPHERWVGPARPRASADWRPFTDGLSARSIAYSLSVLGAMFRWLIQQRYVLANPFAGIKVRGGGRTAALDASHAFSEGEWALVRTLADGLEWSYGWEAAAAQRLRFVLDFAYATGLRASELITARLGGIETDRQSDHWLSLIGKGGRAGKVALPPLARTALDRYLVERGLPVTQARWNPQTPLIGALGLDPGGGITGSRLWSVMRRFFRVAADLIERDHTALAEKLRKASPHWMRHTHASHALARGAELTTVRDNLRHASISTTSIYLHGDDVKRARQIEAAFAAK”, which protein production is on record?
**A.** failed

**Q.** Which protein production does the source give for “MKTSQEELLPATRRALLHRIAVAQAEGRAPSLAAAVVRGGQTVWYGSRTSVDGHAPDENVQYRIGSITKTFTAVLVLRLRDEGVLDLGDPLEKHLPGTGAGEATIAELLAHTGGLAAESPAPWWERTPGSLRPELADVLGELPLRHPVGRRHHYSNPGYTLLGALVEELRGAPWEEVLRREVLEPLGMRRTSGDPRAPHAGGWAVHPWADVMLPEPAEDLGRMAPAGQLWSTTGDLARFAVFLAQGDERVLSADSVREMRTPAAPAEAADVMSGSAYGLGMQLQYRDGRLLVGHSGSLPGFLANLTVSVEDDLAAVVLVNCTSGPMPSAVAADLVRIVAEAEPRIPEPWRPLPDVDEGVLELAGQWYWGTQAFVLRLTVDGGVSLEPLSGVGRRARLRANGDGTWTGLDGYYAGELLKAVRRPDGSVSHLDLGSFVFTRQPYDEGAPVPGGVDPEGWRGIP” here?
**A.** failed

**Q.** For “MKTSVKFETIFPLTTAPLIQCITNEITCESMANALLYIDAKPIMADDPREFPQMFQQTSALVLNLGHLSQEREQSLLAASDYARQVNKLTVVDLVGYGASDIRNEVGEKLVHNQPTVVKGNLSEMRTFCQLVSHGRGVDGSPLDQSEEAIEELIQALRQQTQKFPQTVFLATGIQDVLVSQEQVIVLQNGVPELDCFTGTGDLVGALVAALLGEGNAPMTAAVAAVSYFNLCGEKAKTKSQGLADFRQNTLNQLSLLMKEKDWFEAVKGRVL”, which protein production is on record?
**A.** not failed
